This is an account of results in article PMC9894173 (Proceedings of the National Academy of Sciences of the …, 2022).

In the assay the target is His6-FLAG-MBP-tagged DHX15 (aa 113–795) (human, UniProt O43143 113-795). Description: co-IP.
Chain of His6-FLAG-MBP-tagged DHX15 (aa 113–795) (O43143 113-795): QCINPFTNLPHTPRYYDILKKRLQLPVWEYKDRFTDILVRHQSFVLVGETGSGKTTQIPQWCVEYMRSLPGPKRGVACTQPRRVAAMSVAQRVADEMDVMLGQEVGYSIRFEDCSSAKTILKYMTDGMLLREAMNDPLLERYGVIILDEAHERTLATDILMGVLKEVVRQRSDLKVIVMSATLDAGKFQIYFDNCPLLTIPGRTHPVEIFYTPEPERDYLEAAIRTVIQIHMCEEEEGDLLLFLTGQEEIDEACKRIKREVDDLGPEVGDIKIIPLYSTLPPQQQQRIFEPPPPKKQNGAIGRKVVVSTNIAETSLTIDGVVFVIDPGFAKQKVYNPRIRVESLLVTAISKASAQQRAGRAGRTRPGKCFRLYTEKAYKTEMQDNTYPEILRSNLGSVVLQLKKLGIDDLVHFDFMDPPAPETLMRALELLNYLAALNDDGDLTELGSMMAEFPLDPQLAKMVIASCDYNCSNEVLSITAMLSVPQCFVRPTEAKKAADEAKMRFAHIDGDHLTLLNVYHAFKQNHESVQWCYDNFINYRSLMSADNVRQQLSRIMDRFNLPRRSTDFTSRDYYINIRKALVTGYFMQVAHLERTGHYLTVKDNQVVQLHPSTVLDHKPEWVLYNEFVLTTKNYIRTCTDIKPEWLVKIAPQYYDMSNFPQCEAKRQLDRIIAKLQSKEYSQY

B1: His6-HA-tagged SUGP1 WT (full length) (natural protein)
chain: MSLKMDNRDVAGKANRWFGVAPPKSGKMNMNILHQEELIAQKKREIEAKMEQKAKQNQVASPQPPHPGEITNAHNSSCISNKFANDGSFLQQFLKLQKAQTSTDAPTSAPSAPPSTPTPSAGKRSLLISRRTGLGLASLPGPVKSYSHAKQLPVAHRPSVFQSPDEDEEEDYEQWLEIKVSPPEGAETRKVIEKLARFVAEGGPELEKVAMEDYKDNPAFAFLHDKNSREFLYYRKKVAEIRKEAQKSQAASQKVSPPEDEEVKNLAEKLARFIADGGPEVETIALQNNRENQAFSFLYEPNSQGYKYYRQKLEEFRKAKASSTGSFTAPDPGLKRKSPPEALSGSLPPATTCPASSTPAPTIIPAPAAPGKPASAATVKRKRKSRWGPEEDKVELPPAELVQRDVDASPSPLSVQDLKGLGYEKGKPVGLVGVTELSDAQKKQLKEQQEMQQMYDMIMQHKRAMQDMQLLWEKAVQQHQHGYDSDEEVDSELGTWEHQLRRMEMDKTREWAEQLTKMGRGKHFIGDFLPPDELEKFMETFKALKEGREPDYSEYKEFKLTVENIGYQMLMKMGWKEGEGLGSEGQGIKNPVNKGTTTVDGAGFGIDRPAELSKEDDEYEAFRKRMMLAYRFRPNPLNNPRRPYY
Turning to B1, the binding result is given as “binds”.
